The text below walks through data of US20260184782A1 (TWIST BIOSCIENCE, published 2026).

Assay [1] has as its target T1, TIGIT (UniProt Q495A1 22-141, limits assumed).
T1 construct: construct not described; also called T cell immunoreceptor with Ig and ITIM domains
T1 sequence (looked up): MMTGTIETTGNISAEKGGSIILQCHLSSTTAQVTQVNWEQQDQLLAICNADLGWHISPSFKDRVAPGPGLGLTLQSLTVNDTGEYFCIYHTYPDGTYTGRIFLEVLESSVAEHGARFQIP
The assay is described as follows: SPR, VHH-V5-His. For orientation: SPR reads the build-up and loss of mass on a sensor chip optically.

The target of assay [2] is T1, TIGIT. The assay is described as follows: SPR, VHH-V5-His; unit inferred.
Assay [3] concerns the target T2, human TIGIT-Fc (human, UniProt Q495A1 22-141, limits assumed).
T2 construct: not shown: Fc; not described
T2 sequence (looked up): T1 sequence (looked up)
The assay is described as follows: CD155 competition ELISA, titration. The procedure:
(§1) TIGIT/CD155 inhibition of VHH-Fcs were assessed using an ELISA assay (Table 10B). Briefly, human TIGIT-Fc was coated on a plate & then incubated with VHH-Fcs and human CD155-biotin. Bound CD155-biotin was detected using a streptavidin-HRP conjugate visualized with TMB. Strong inhibitors from the single point screen were titrated to determine EC50 (Table 10C).
For orientation: An ELISA detects its analyte on a solid surface through an enzyme-linked reagent.

Assay [4] addresses T2, human TIGIT-Fc. The assay is described as follows: CD155 competition ELISA, single point. The procedure:
as §1

Another assay addresses T3, recombinant human TIGIT (human, UniProt Q495A1 22-141, limits assumed).
T3 construct: also called T cell immunoreceptor with Ig and ITIM domains
T3 sequence (looked up): T1 sequence (looked up)
The assay is described as follows: SPR (Carterra), average. The procedure: Binding affinities of VHH-Fc proteins to recombinant human TIGIT were measured by SPR using a Carterra instrument (Table 10A). […] Average values reported from measurements from 1-2 samples.

What is called Kd is the equilibrium constant for the complex coming apart. The term EC50 denotes the concentration that produces a half-maximal response. A higher EC50 goes with lower potency in that assay. In general, koff refers to the first-order rate constant of dissociation. By kon is commonly meant a measure of how fast the partners come together.

Where a chain is given by its changes, count along the chain named.

B1: TIGIT-30-52 VHH-V5-His (VHH)
VHH: EVQLVESGGGLVQAGGSLRLSCAASGRTFSNYFMGWFRQAPGKERESVATVTWRDNITYYADSVKGRFTISADNAKNTVYLQMNSLKPEDTAVYYCASAGRWGQGTQVTVSS
notes: not shown: V5 and His tags
The molecule B1 returned an RU with TIGIT [1] of 270 RU.

B2: TIGIT-29-10 VHH-V5-His (VHH)
VHH: EVQLVESGGGLVQAGGSLRLSCAASGRTFSNYGMGWFRQAPGKEREFVSGISGSGGRTSYADSVKGRFTISADNAKNTVYLQMNSLKPEDTAVYYCAANLWYPVDRLNTGFNYWGQGTQVTVSS
notes: not shown: V5 and His tags
For the molecule B2, in the assay with TIGIT [2], binding was put at a Kd of 323 nM. Besides, in the assay with TIGIT [1], the RU was determined as 36 RU.

B3: TIGIT-29-01 VHH-V5-His (VHH)
VHH: EVQLVESGGGLVQAGGSLRLSCAASGRTFSNYAMGWFRQAPGKEREFVAAITWSGTRTDYADSVKGRFTISADNAKNTVYLQMNSLKPEDTAVYYCAAAAWTIYEYDYWGQGTQVTVSS
notes: not shown: V5 and His tags
Turning to B3, the Kd in the assay with TIGIT [2] turned out to be 365 nM. Besides, the RU with TIGIT [1] is 88 RU.

B4: TIGIT-29-07 VHH-V5-His (VHH)
VHH: B3 VHH with R27S, T28I, A50T, T52S, W53R, S54G, D59N, E105A, D107N
notes: not shown: V5 and His tags
In turn, B4 yielded a Kd in the assay with TIGIT [2] of 465 nM. In addition, in the assay with TIGIT [1], the RU turned out to be 26 RU.

B5: TIGIT-29-33 VHH-V5-His (VHH)
VHH: B3 VHH with R27F, T28I, N31T, F47L, A49S, W53R, T56I, R57T, D59Y
notes: not shown: V5 and His tags
Take B5: in the assay with TIGIT [1], the RU turned out to be 202 RU.

B6: TIGIT-29-30 VHH-V5-His (VHH)
VHH: B3 VHH with R27F, N31S, T102R, I103Y, Y104S
notes: not shown: V5 and His tags
In the assay with TIGIT [2], B6 registered a Kd of 232 nM. Moreover, the RU with TIGIT [1] stood at 77 RU.

B7: TIGIT-29-12 VHH-V5-His (VHH)
VHH: B3 VHH with R27S, N31S, D59N, E105T, Y108S
notes: not shown: V5 and His tags
In the assay with TIGIT [2], B7 showed a Kd of 8580 nM. In addition, the RU with TIGIT [1] was found to be 464 RU.

B8: TIGIT-SC149 (Fc fusion)
VHH: EVQLVESGGGLVQPGGSLRLSCAASGFTLENNMMGWFRQAPGKEREFVAAISRSGTLKAYADSVKGRFTISADNSKNTAYLQMNSLKPEDTAVYYCAKVQGPYCSGGSCYLYTFDLWGQGTLVTVSS
notes: VHH-Fc
As to B8, the EC50 with human TIGIT-Fc [3] is 11.9 nM. Further, the “OD (450 nm)” value in the assay with human TIGIT-Fc [4] is 0.263 OD.

B9: TIGIT-30-20 VHH-V5-His (VHH)
VHH: EVQLVESGGGLVQAGGSLRLSCAASGPTFSIYDMGWFRQAPGKEREFVAVINWSRGSTFYADSVKGRFTISADNAKNTVYLQMNSLKPEDTAVYYCAAGVWSSLRHTAANWGQGTQVTVSS
notes: not shown: V5 and His tags
B9 yielded a Kd with TIGIT [2] of 195 nM. The molecule further returned an RU with TIGIT [1] of 69 RU.

B10: TIGIT-30-43 VHH-V5-His (VHH)
VHH: EVQLVESGGGLVQAGGSLRLSCAASGFTFSTSWMGWFRQAPGKERELVAARNSGGNTNYADSVKGRFTISADNAKNTVYLQMNSLKPEDTAVYYCAADVWYGSTWRNWGQGTQVTVSS
notes: not shown: V5 and His tags
Molecule B10 showed a Kd with TIGIT [2] of 107 nM. This molecule came in with an RU with TIGIT [1] of 407 RU.

B11: TIGIT-30-01 VHH-V5-His (VHH)
VHH: B10 VHH with T28A, T31S, S32Y
notes: not shown: V5 and His tags
In the case of B11, the Kd in the assay with TIGIT [2] worked out at 7460 nM. The molecule also had an RU with TIGIT [1] of 664 RU.

B12: TIGIT-30-40 VHH-V5-His (VHH)
VHH: B10 VHH with T31G, S32N, L47W, A49V, A50G, R51I, N52S, N56S, N58H
notes: not shown: V5 and His tags
Take B12: the Kd in the assay with TIGIT [2] was 222 nM. The molecule further displayed an RU with TIGIT [1] of 113 RU.

B13: TIGIT-SC210 (Fc fusion)
VHH: EVQLVESGGGLVQPGGSLRLSCAASGFLFDSYWMVWFRQAPGKEREFVAAIWRSGTLKAYADSVKGRFTISADNSKNTAYLQMNSLKPEDTAVYYCARDHRAMVAPFDYWGQGTLVTVSS
notes: VHH-Fc
Take B13: in the assay with recombinant human TIGIT, the dissociation constant Kd is 6330 nM, the koff was 0.258 s⁻¹ and the kon came to 40700 M⁻¹ s⁻¹. Besides, the “OD (450 nm)” value in the assay with human TIGIT-Fc [4] amounted to 0.516 OD.

B14: TIGIT-30-30 VHH-V5-His (VHH)
VHH: EVQLVESGGGLVQAGGSLRLSCAASGGTFSGRGMGWFRQAPGKEREWVSSVYIFGGSTYYADSVKGRFTISADNAKNTVYLQMNSLKPEDTAVYYCANSNKPKFDWGQGTQVTVSS
notes: not shown: V5 and His tags
Regarding B14, in the assay with TIGIT [1], the RU was 3 RU.

B15: TIGIT-30-49 VHH-V5-His (VHH)
VHH: EVQLVESGGGLVQAGGSLRLSCAASGNIFSRYIMGWFRQAPGKEREWVAGISNGGTTKYADSVKGRFTISADNAKNTVYLQMNSLKPEDTAVYYCAQGWKIVPTNWGQGTQVTVSS
notes: not shown: V5 and His tags
Take B15: the Kd with TIGIT [2] turned out to be 945 nM. In addition, the RU with TIGIT [1] was 99 RU.

B16: TIGIT-30-15 VHH-V5-His (VHH)
VHH: EVQLVESGGGLVQAGGSLRLSCAASGFTFSGNWMGWFRQAPGKEREWVSGISSGGGRTYYADSVKGRFTISADNAKNTVYLQMNSLKPEDTAVYYCAADVWYGSTWRNWGQGTQVTVSS
notes: not shown: V5 and His tags
As for B16, in the assay with TIGIT [2], the Kd was 215 nM. Also, the RU in the assay with TIGIT [1] was 66 RU.

B17: TIGIT-SC151 (Fc fusion)
VHH: EVQLVESGGGLVQPGGSLRLSCAASGFPFSIYPMGWFRQAPGKEREFVAAISASGTLRAYADSVKGRFTISADNSKNTAYLQMNSLKPEDTAVYYCARSSSWVRIFDYWGQGTLVTVSS
notes: VHH-Fc
With B17, in the assay with human TIGIT-Fc [3], the midpoint of the response, the EC50, lay at 4.14 nM. In addition, the “OD (450 nm)” value with human TIGIT-Fc [4] was determined as 0.206 OD.

B18: TIGIT-SC193 (Fc fusion)
VHH: EVQLVESGGGLVQPGGSLRLSCAASGFTFSDYWMGWFRQAPGKEREFVAAISRSGTLKAYADSVKGRFTISADNSKNTAYLQMNSLKPEDTAVYYCARGSGWPKIHFDYWGQGTLVTVSS
notes: VHH-Fc
For the molecule B18, the EC50 with human TIGIT-Fc [3] amounted to 4.39 nM. Also, in the assay with human TIGIT-Fc [4], the “OD (450 nm)” value was 0.151 OD.

B19: TIGIT-29-18 VHH-V5-His (VHH)
VHH: EVQLVESGGGLVQAGGSLRLSCAASGSTFSNYAMGWFRQAPGKEREFVSAINSSGSRTYYADSVKGRFTISADNAKNTVYLQMNSLKPEDTAVYYCAARLWGTWTAGDYDYWGQGTQVTVSS
notes: not shown: V5 and His tags
In the assay with TIGIT [2], B19 had a Kd of 352 nM. Also, the RU with TIGIT [1] was found to be 157 RU.

B20: TIGIT-29-22 VHH-V5-His (VHH)
VHH: B19 VHH with T28I, F29L, N31S, A33T, A50T, N52S, S53R, G55S, S56T
notes: not shown: V5 and His tags
In the case of B20, the equilibrium dissociation constant (Kd) with TIGIT [2] stood at 500 nM. In the assay with TIGIT [1], this molecule registered an RU of 123 RU.

B21: TIGIT-29-34 VHH-V5-His (VHH)
VHH: B19 VHH with S27F, S30R, A50S, N52S, G55S, Y59S
notes: not shown: V5 and His tags
Consider B21, for which, in the assay with TIGIT [2], the Kd was 967 nM. In the assay with TIGIT [1], this molecule gave an RU of 167 RU.

B22: TIGIT-29-06 VHH-V5-His (VHH)
VHH: EVQLVESGGGLVQAGGSLRLSCAASGGTFRSYVMGWFRQAPGKEREWVATINSSGSRTYYADSVKGRFTISADNAKNTVYLQMNSLKPEDTAVYYCAARPNYRDYEYWGQGTQVTVSS
notes: not shown: V5 and His tags
In the assay with TIGIT [1], B22 had an RU of 26100 RU.

B23: TIGIT-SC135 (Fc fusion)
VHH: EVQLVESGGGLVQPGGSLRLSCAASGFAFGDSWMGWFRQAPGKEREWVASVLRGGTLRAYAVSVKGRFTISADNSKNAAYLQMNSLKPEDTAVYYCARASIVGTTTLVWGQGTLVTVSS
notes: VHH-Fc
In the case of B23, in the assay with recombinant human TIGIT, the Kd amounted to 1670 nM, the koff came out at 0.21 s⁻¹ and the kon is 126000 M⁻¹ s⁻¹. Besides, in the assay with human TIGIT-Fc [4], the “OD (450 nm)” value came out at 0.827 OD.

B24: TIGIT-SC152 (Fc fusion)
VHH: EVQLVESGGGLVQPGGNLRLSCAASGSTFSKHHAMGWFRQAPGKEREFVAGIIRSGTLKAYADSVKGRFTISADNSKNTAYLQMNSLKPEDTAVYYCTRGRAARHNLWYFDLWGQGTLVTVSS
notes: VHH-Fc
Consider B24, for which the EC50 in the assay with human TIGIT-Fc [3] came to 13.4 nM. In addition, the “OD (450 nm)” value with human TIGIT-Fc [4] was found to be 0.259 OD.
